# Data published in PMC11574045, “A cofactor-induced repressive type of transcription factor condensation can be induced by synthetic peptides to suppress tumorigenesis” (The EMBO Journal, 2024).
# Test system: HEK293FT cells transfected with TF library
# Experiment: Screening of TF condensates based on fluorescent puncta
# Assay type: cell-based
# Settings: Figure 1B numerical data; TF library screen, one value per transcriptional factor
# Summary of the method: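 Condensate formation is scored as Alexa 488-labelled puncta after Flag- or GAL4-tag immunostaining of fixed HEK293FT cells expressing individual TFs, with a 12 h glucose-free or glucose-containing culture preceding fixation.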
row,Molecule,Z score of condensed fraction
1,"TGIF2LY (protein, UniProt Q8IUE0 1-185, looked up) Homeobox protein TGIF2LY: MEAAADGPAETQSPVEKDSPAKTQSPAQDTSIMSRNNADTGRVLALPEHKKKRKGNLPAESVKILRDWMYKHRFKAYPSEEEKQMLSEKTNLSLLRISNWFINARRRILPDMLQQRRNDPIIGHKTGKDAHATHLQSTEASVPAKSGPVVQTMYKACPCGPCQRARCQERSNQIRSRPLARSSPE",1.271
2,"THAP6 (protein, UniProt Q8TBB0 1-222, looked up) THAP domain-containing …: MVKCCSAIGCASRCLPNSKLKGLTFHVFPTDENIKRKWVLAMKRLDVNAAGIWEPKKGDVLCSRHFKKTDFDRSAPNIKLKPGVIPSIFDSPYHLQGKREKLHCRKNFTLKTVPATNYNHHLVGASSCIEEFQSQFIFEHSYSVMDSPKKLKHKLDHVIGELEDTKESLRNVLDREKRFQKSLRKTIRELKDECLISQETANRLDTFCWDCCQESIEQDYIS",2.571
3,"THAP8 (protein, UniProt Q8NA92 1-274, looked up) THAP domain-containing …: MPKYCRAPNCSNTAGRLGADNRPVSFYKFPLKDGPRLQAWLQHMGCEHWVPSCHQHLCSEHFTPSCFQWRWGVRYLRPDAVPSIFSRGPPAKSQRRTRSTQKPVSPPPPLQKNTPLPQSPAIPVSGPVRLVVLGPTSGSPKTVATMLLTPLAPAPTPERSQPEVPAQQAQTGLGPVLGALQRRVRRLQRCQERHQAQLQALERLAQQLHGESLLARARRGLQRLTTAQTLGPEESQTFTIICGGPDIAMVLAQDPAPATVDAKPELLDTRIPSA",1.115
4,"THAP4 (protein, UniProt Q8WY91 1-577, looked up) Peroxynitrite isomerase THAP4: MVICCAAVNCSNRQGKGEKRAVSFHRFPLKDSKRLIQWLKAVQRDNWTPTKYSFLCSEHFTKDSFSKRLEDQHRLLKPTAVPSIFHLTEKKRGAGGHGRTRRKDASKATGGVRGHSSAATSRGAAGWSPSSSGNPMAKPESRRLKQAALQGEATPRAAQEAASQEQAQQALERTPGDGLATMVAGSQGKAEASATDAGDESATSSIEGGVTDKSGISMDDFTPPGSGACKFIGSLHSYSFSSKHTRERPSVPREPIDRKRLKKDVEPSCSGSSLGPDKGLAQSPPSSSLTATPQKPSQSPSAPPADVTPKPATEAVQSEHSDASPMSINEVILSASGACKLIDSLHSYCFSSRQNKSQVCCLREQVEKKNGELKSLRQRVSRSDSQVRKLQEKLDELRRVSVPYPSSLLSPSREPPKMNPVVEPLSWMLGTWLSDPPGAGTYPTLQPFQYLEEVHISHVGQPMLNFSFNSFHPDTRKPMHRECGFIRLKPDTNKVAFVSAQNTGVVEVEEGEVNGQELCIASHSIARISFAKEPHVEQITRKFRLNSEGKLEQTVSMATTTQPMTQHLHVTYKKVTP",-0.8956
5,"BLZF1 (protein, UniProt Q9H2G9 1-400, looked up) Golgin-45: MTTKNLETKVTVTSSPIRGAGDGMETEEPPKSVEVTSGVQSRKHHSLQSPWKKAVPSESPGVLQLGKMLTEKAMEVKAVRILVPKAAITHDIPNKNTKVKSLGHHKGEFLGQSEGVIEPNKELSEVKNVLEKLKNSERRLLQDKEGLSNQLRVQTEVNRELKKLLVASVGDDLQYHFERLAREKNQLILENEALGRNTAQLSEQLERMSIQCDVWRSKFLASRVMADELTNSRAALQRQNRDAHGAIQDLLSEREQFRQEMIATQKLLEELLVSLQWGREQTYSPSVQPHSTAELALTNHKLAKAVNSHLLGNVGINNQKKIPSTVEFCSTPAEKMAETVLRILDPVTCKESSPDNPFFESSPTTLLATKKNIGRFHPYTRYENITFNCCNHCRGELIAL",-1.161
6,"TERF2 (protein, UniProt O35144 1-541, looked up) Telomeric repeat-binding …: MAAGAGTAGPASGPGVVRDPMASQPRKRPSREGGEGGEGERRSNTMAGGGGSSDSSGRAASRRASRSGGRARRGRHEPGLGGAAERGAGEARLEEAVNRWVLKFYFHEALRAFRSSRYRDFRQIRDIMQALLVRPLGKEHTVSRLLRVMQCLSRIEEGENLDCSFDMEAELTPLESAINVLEMIKTEFTLTDSMVESSRKLVKEAAVIICIKNKEFEKASKILKKYMSKDPTTQKLRTDLLNIIREKNLAHPVIQNFSYEVFQQKMLRFLESHLDDTEPYLLTMAKKALKSESAASSTMREEKHPEPVEKPLREPPSRQPQNPPATIGIRTLKAAFKALSTAQDSEAAFAKLDQKDLVLANLASPSSPAHKHKRPRKDEHESAAPAEGEGGSDRQPRNSPMTISRLLLEEDSQSTEPSPGLNSSHKAMSASKPRALNQPHPGEKKPKASKDKWNSPNGLEEKEVWLEEDQLFEVQAPGEDRSSSLTRKQKWTIEESEWVKDGVRKYGEGNWAAISKSYPFVNRTAVMIKDRWRTMKKLGMN",0.4642
7,"THAP1 (protein, UniProt Q9NVV9 1-213, looked up) THAP domain-containing …: MVQSCSAYGCKNRYDKDKPVSFHKFPLTRPSLCKEWEAAVRRKNFKPTKYSSICSEHFTPDCFKRECNNKLLKENAVPTIFLCTEPHDKKEDLLEPQEQLPPPPLPPPVSQVDAAIGLLMPPLQTPVNLSVFCDHNYTVEDTMHQRKRIHQLEQQVEKLRKKLKTAQQRCRRQERQLEKLKEVVHFQKEKDDVSERGYVILPNDYFEIVEVPA",-0.6542
8,"THAP10 (protein, UniProt Q9P2Z0 1-257, looked up) THAP domain-containing …: MPARCVAAHCGNTTKSGKSLFRFPKDRAVRLLWDRFVRGCRADWYGGNDRSVICSDHFAPACFDVSSVIQKNLRFSQRLRLVAGAVPTLHRVPAPAPKRGEEGDQAGRLDTRGELQAARHSEAAPGPVSCTRPRAGKQAAASQITCENELVQTQPHADNPSNTVTSVPTHCEEGPVHKSTQISLKRPRHRSVGIQAKVKAFGKRLCNATTQTEELWSRTSSLFDIYSSDSETDTDWDIKSEQSDLSYMAVQVKEETC",1.236
9,"TFEC (protein, UniProt O14948 1-347, looked up) Transcription factor EC: MTLDHQIINPTLKWSQPAVPSGGPLVQHAHTTLDSDAGLTENPLTKLLAIGKEDDNAQWHMEDVIEDIIGMESSFKEEGADSPLLMQRTLSGSILDVYSGEQGISPINMGLTSASCPSSLPMKREITETDTRALAKERQKKDNHNLIERRRRYNINYRIKELGTLIPKSNDPDMRWNKGTILKASVEYIKWLQKEQQRARELEHRQKKLEQANRRLLLRIQELEIQARTHGLPTLASLGTVDLGAHVTKQQSHPEQNSVDYCQQLTVSQGPSPELCDQAIAFSDPLSYFTDLSFSAALKEEQRLDGMLLDDTISPFGTDPLLSATSPAVSKESSRRSSFSSDDGDEL",1.616
10,"THRA (protein, UniProt P10827 1-490, looked up) Thyroid hormone receptor alpha: MEQKPSKVECGSDPEENSARSPDGKRKRKNGQCSLKTSMSGYIPSYLDKDEQCVVCGDKATGYHYRCITCEGCKGFFRRTIQKNLHPTYSCKYDSCCVIDKITRNQCQLCRFKKCIAVGMAMDLVLDDSKRVAKRKLIEQNRERRRKEEMIRSLQQRPEPTPEEWDLIHIATEAHRSTNAQGSHWKQRRKFLPDDIGQSPIVSMPDGDKVDLEAFSEFTKIITPAITRVVDFAKKLPMFSELPCEDQIILLKGCCMEIMSLRAAVRYDPESDTLTLSGEMAVKREQLKNGGLGVVSDAIFELGKSLSAFNLDDTEVALLQAVLLMSTDRSGLLCVDKIEKSQEAYLLAFEHYVNHRKHNIPHFWPKLLMKEREVQSSILYKGAAAEGRPGGSLGVHPEGQQLLGMHVVQGPQVRQLEQQLGEAGSLQGPVLQHQSPKSPQQRLLELLHRSGILHARAVCGEDDSSEADSPSSSEEEPEVCEDLAGNAASP",-0.4575
11,"TFDP3 (protein, UniProt Q5H9I0 1-405, looked up) Transcription factor Dp …: MAKYVSLTEANEELKVLMDENQTSRPVAVHTSTVNPLGKQLLPKTFGQSSVNIDQQVVIGMPQRPAASNIPVVGSPNPPSTHFASQNQHSYSSPPWAGQHNRKGEKNGMGLCRLSMKVWETVQRKGTTSCQEVVGELVAKFRAASNHASPNESAYDVKNIKRRTYDALNVLMAMNIISREKKKIKWIGLTTNSAQNCQNLRVERQKRLERIKQKQSELQQLILQQIAFKNLVLRNQYVEEQVSQRPLPNSVIHVPFIIISSSKKTVINCSISDDKSEYLFKFNSSFEIHDDTEVLMWMGMTFGLESGSCSAEDLKMARNLVPKALEPYVTEMAQGTFGGVFTTAGSRSNGTWLSASDLTNIAIGMLATSSGGSQYSGSRVETPAVEEEEEEDNNDDDLSENDEDD",0.6635
